Assay results reported in the supplement of paper PMC9170038.

Tested on: MS2 coat protein
Test: apparent KD of MS2 coat protein; designed switch direction (-1 OFF switch, 1 ON switch): 1; higher = weaker reporter binding
In short: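 The apparent KD reported per design is the median over clusters of curve fits to normalised cluster fluorescence. The RNA switches were transcribed on Illumina chips by stalled E. coli RNA polymerase. SNAP-549-labelled MS2 coat protein was titrated from 0.7 or 1.5 nM, doubling up to 3 µM, in Tris-HCl pH 7.5 buffer containing KCl, MgCl2, BSA, DTT, tRNA and Tween-20, with no input, 200 uM small-molecule ligand, or an oligonucleotide input.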

[1] = input ligand: microRNA oligo, concentration not stated
[2] = Eterna round: R95, input ligand: FMN 200 uM
[3] = Eterna round: R95, input ligand: microRNA oligo, concentration not stated
[4] = Eterna round: R95, input ligand: none

| Sequence | apparent KD of MS2 coat protein (input ligand: FMN 200 uM) [nM] | apparent KD of MS2 coat protein [1] [nM] | apparent KD of MS2 coat protein (input ligand: none) [nM] | apparent KD of MS2 coat protein [2] [nM] | apparent KD of MS2 coat protein [3] [nM] | apparent KD of MS2 coat protein [4] [nM] |
| --- | --- | --- | --- | --- | --- | --- |
| GUACAUAUCGUAGGAUAUCACGUCGAAUAGACGUGAGAAGGACGGUCCCACAUGAAUAUUAAUACAUGAGGAUCACCCAUGUAC [MOD SSNG 1/18-A1 by Brourd] (Eterna round: R96, puzzle: Same State NG 1) | 92.5 | 41.8 | 43 | – | – | – |
| AAGGGAUGAGCGUAGGAUAUAGGAGAAGUGACAUGAGGAUCACCCAUGUAAAAGGAGGGAUGAGACUAGAAGGACGAGGUAGGAG [JR_SS2_Sub059] (puzzle: Same State 2) | – | – | – | 132 | 84.6 | 91.5 |
| GCCGCGUUUCGCGCCUACAUGAGGAUCACCCAUGUUUGUAGGCAGGAUAUCGUUUGCUUUGCAAACGAGAAGGGCUGUUGUGGC [salish99_SSNG3_R04_012] (Eterna round: R96, puzzle: Same State NG 3) | 29.9 | 47.2 | 50.2 | – | – | – |
| UCUUGGUUUUUGCUCGUUUUUUGUGUUGAACAUGAGGAUCACCCAUGUAUUGUACAGUCCAAUUUAAUAAUGGUCCA [JMF 4] (puzzle: Sensor for hsa-mir-208a) | – | – | – | 34.2 | 27.9 | 41.6 |
| AGUCCAGCCUGAGCUGGACAAAAGCAUGUACAUGAGGAUCACCCAUGUCAUGUACAAGCUUUUUGCUCGUCAUAAAA [Mat - hsa-mir-208a - Mod of JL - D8] (puzzle: Sensor for hsa-mir-208a) | – | – | – | 578 | 14.7 | 651 |
| GGUAAACAUGAGGAUCACCCAUGUAAUAUAAUGGGAGGAUAUCUGAAUUAAUUAAAUUAAGGAGAAGGCCUAAUGU [Mat - Same State 1 - Mod of Eli - D50] (puzzle: Same State 1) | – | – | – | 65.5 | 462 | 410 |
| CGAUGAAACAAAGGAAGAAGAGUUGAAGUACAUGAGGAUCACCCAUGUCAGAGCUUUUUGCUCGUCAUGAACAGGAA [JR_SHM208a_Sub004] (puzzle: Sensor for hsa-mir-208a) | – | – | – | 35.9 | 24.4 | 54.9 |
| GACAGGCAGGCUUUUUCCUCGUAGUGUAAACAUGAGGAUCACCCAUGUGCUCGCCCUGGAUCUUUGGAUCGCAGGAA [Tibeon] (puzzle: Sensor for hsa-mir-208a) | – | – | – | 353 | 124 | 407 |
| GAGAGACGAUUAGGAUAUACGGUGAUAAUGAUAGUAGAAGGAAUUGACAUGAGGAUCACCCAUGUAGGAAUAAUCCAGAGAGAG [Parity 26 - Jieux - Same State NG 1] (Eterna round: R96, puzzle: Same State NG 1) | 81.2 | 93.2 | 86.8 | – | – | – |
| GCGGUCUGACAUGAGGAUCACCCAUGUGGAAUAAAUACGGGUUAGGAUAUCUUGAGGAUCACCCAAGAGAAGGGAUGGACCGCU (Eterna round: R96, puzzle: Same State NG 3) | 32.1 | 22.8 | 38.4 | – | – | – |
| GAGUUACAUGAGGAUCACCCAUGUGGUUGUGGAUAAGGAUAUAUGGUAGGAGGAGGAAUGAUAGAAGGUAUUAGGG [JR_SS1_Sub065] (puzzle: Same State 1) | – | – | – | – | 52.9 | – |
| GCUACCAAUGAAGCCAACAUGAGGAUCACCCAUGUAUGUUGGCAGGAUAUCGAUUGCAAAGCGAUCGAGAAGGGCUAAGGUAGC [Mat - Same State NG 3 - JL Mod - D87] (Eterna round: R96, puzzle: Same State NG 3) | 107 | 120 | 177 | – | – | – |
| AUUAAACAUGAGGAUCACCCAUGUCAACAAAGUCGAGGAUAUGGGCAAAUAAAAUAAGAACCAGAAGGCGAAUAUU [salish99_ss1_r3_080] (puzzle: Same State 1) | – | – | – | 38.5 | 407 | 180 |
| ACAUGAGACGGAGGAUAUGUUGUACCUACAUGUGACAUGAGGAUCACCCAUGUGGUAAGUAUGAUACAGAAGGCCGAGAUAUGU [Equivalance 58 - Jieux - Same State NG 2] (Eterna round: R96, puzzle: Same State NG 2) | 13.6 | 13.2 | 18.9 | – | – | – |
| AUUAUUUAUGCAGGAUAUGAUUAACAUGAGGAUCACCCAUGUGGUGUUGUGAGUAAGGAGAGUGAUCAGAAGGGCAUUUUUUUA [JMF's solution 56] (Eterna round: R96, puzzle: Same State NG 2) | 476 | 410 | 302 | – | – | – |
| GAGCCAGUCCGAGGAUAUUCAUAUAAAUUAAAUACAUGAGGAUCACCCAUGUAGGCGGAGCCUUGGGAGAAGGCGGACUGGCUC [Xeonanisa>>5] (Eterna round: R96, puzzle: Same State NG 2) | 22.7 | 35.9 | 58.4 | – | – | – |

| Sequence | apparent KD of MS2 coat protein (input ligand: FMN 200 uM) [nM] | apparent KD of MS2 coat protein [1] [nM] | apparent KD of MS2 coat protein (input ligand: none) [nM] | apparent KD of MS2 coat protein [2] [nM] | apparent KD of MS2 coat protein [3] [nM] | apparent KD of MS2 coat protein [4] [nM] |
| --- | --- | --- | --- | --- | --- | --- |
| AAUUCAAACAGAGGAUAUUGUUUAUCUCUAUUGCAAGAAGGCUGAUCUUACUACUUACUUAUGAAACAUGAGGAUCACCCAUGU [JR_SSNG1_Sub019] (Eterna round: R96, puzzle: Same State NG 1) | – | 29.3 | – | – | – | – |
| UGUUGUUAAUUAGGAUAUGGUCACAUGAGGAUCACCCAUGUAAUGUCGAUGCUAUGUGGAUCCGAUCAGAAGGAAUGGCUAACA [SameState NG2 #95] (Eterna round: R96, puzzle: Same State NG 2) | 201 | 121 | 204 | – | – | – |
| GUUACAUGAGGAUCACCCAUGUAUGUGUGGGAGUAAGUGUCUUAGGAUAUCUAGUAUUAAAUUUAAGAGAAGGAAGAUUGUUGU [JMF's solution 57] (Eterna round: R96, puzzle: Same State NG 3) | 140 | 78.9 | 110 | – | – | – |
| UGGCUGGUGCUAGGAUAUGCAUGAGGCAUCCUCGUAGAAGGAGCACGACAUGAGGAUCACCCAUGUAGCCGUCCGUAGACGGCU [salish99_SSNG1_r04_010] (Eterna round: R96, puzzle: Same State NG 1) | 673 | 348 | 1060 | – | – | – |
| CCCUCACAUGAGGAUCACCCAUGUCCUAGCCCGUCAGGAUAUAGCCCGCAUCCGCUGCGGCUAGAAGGGACAGCUG [JR_SS001_Sub611] (Eterna round: R96, puzzle: Same State 1) | 177 | 152 | 232 | – | – | – |
| AGAGGAGGAGCAGGAUAUUCGAAGGAGGACGUGGAAGAAGGGUUCAUGCGAUGACAUGAGGAUCACCCAUGUACCGCGCGUCGA [AK SSNG1-V2-15] (Eterna round: R96, puzzle: Same State NG 1) | 381 | 126 | 484 | – | – | – |
| UCUAGACAUGAGGAUCACCCAUGUCGAUAUGGCGCAGGAUAUCGGUACUCAUAGAGUACGCGAGAAGGGUGACUUC [Same State 1 - Mod of Vinnie Gere v.2] (puzzle: Same State 1) | – | – | – | – | 173 | – |
| CCGCAUUCAGCAGGAUAUCUCAACCGGAAGAUGAGAGAAGGGUUGAUUACAUGAGGAUCACCCAUGUCCAAGCAUGCGAGAGCC [Eternabot solution 23] (Eterna round: R96, puzzle: Same State NG 1) | 500 | 754 | 188 | – | – | – |
| AAAAUACAUGAGGAUCACCCAUGUCUAAAGAACGGAGGAUAUAGGCGUACAAAACACGCACUAGAAGGCUGGGUGC [Tesoonge] (puzzle: Same State 1) | – | – | – | 151 | 116 | 155 |
| GUGGUGGGUUGAGGAUAUUGGUUGUUGUUGUUCUACAUGAGGAUCACCCAUGUGGGUUGUGGUUUUGAGAAGGUUGGUUGCUGG [salish99_SSNG2_r04_049] (Eterna round: R96, puzzle: Same State NG 2) | 45.2 | 31.3 | 42.8 | – | – | – |
| ACAAGCUUUUUUGUAGUGAAAGGUGGGAUACAUGAGGAUCACCCAUGUAUUGUUGUUAAUAUUGGACCUCGUCUUAU [JR_SHM208A_Sub084] (puzzle: Sensor for hsa-mir-208a) | – | – | – | 22.1 | 14.2 | 22.5 |
| GGUGCGAAUAAAGCCUACAUGAGGAUCACCCAUGUAUGUAGGCAGGAUAUCGUUUGCUUUGCAAACGAGAAGGGCUGACGCACC [JL SSNG3 1.17] (Eterna round: R96, puzzle: Same State NG 3) | 27.4 | 37.7 | 63.6 | – | – | – |
| GUAGCAUACCGAGGAUAUUCAUAUUACAUGAGGAUCACCCAUGUUAUUUAGGCCAAAAGGCCUUGGGAGAAGGCGGAAUGCUAC [Xeonanis - 20 Mod8] (Eterna round: R96, puzzle: Same State NG 2) | 9.39 | 9.17 | 18.2 | – | – | – |
| CUCCAUUGGGUAGGAUAUCUAGGAUAUGGGAAAGACUAAGUCUGUAGGUCACCUAACCCAGAUGGAGAGAAGGACCCAACUCUC [pwkr ssNG2 2FMN + F9.41] (Eterna round: R96, puzzle: Same State NG 2) | 8.17 | 2.07 | 12.3 | – | – | – |
| UUAAUGAUGUAAGGAUAUACAUGAGGAUUUCUCGUAGAAGGUACAGGACAUGAGGAUCACCCAUGUAUCGCUCCGUAGAGCGUA [JL SSNG1 1.11] (Eterna round: R96, puzzle: Same State NG 1) | 136 | 292 | 356 | – | – | – |
